Molecular target: the molecule itself
Test: SEC; gel-filtration chromatography of the pure proteins; Sephacryl S-200, 10 mM Tris-HCl pH 8.0, 0.15 M NaCl, 0.8 ml/min; results not shown

Protein | stoichiometry N
Caenorhabditis elegans manganese superoxide dismutase MnSOD-2 (enzyme, N-terminal methionine of the expression construct, retained in the purified protein by mass spectrometry; Superoxide dismutase [Mn]; Expressed without a histidine tag; Cloning is as in Hunter et al., 1997) MKHSLPDLPYDYADLEPVISHEIMQLHHQKHHATYVNNLNQIEEKLHEAVSKGNVKEAIALQPALKFNGGGHINHSIFWTNLAKDGGEPSAELLTAIKSDFGSLDNLQKQLSASTVAVQGSGWGWLGYCPKGKILKVATCANQDPLEATTGLVPLFGIDVWEHAYYLQYKNVRPDYVNAIWKIANWKNVSERFAKAQQ | 4
Caenorhabditis elegans manganese superoxide dismutase MnSOD-3 (enzyme, N-terminal methionine of the expression construct, retained in the purified protein by mass spectrometry; Superoxide dismutase [Mn]; Expressed without a histidine tag; Cloning is as in Hunter et al., 1997) MKHTLPDLPFDYADLEPVISHEIMQLHHQKHHATYVNNLNQIEEKLHEAVSKGNLKEAIALQPALKFNGGGHINHSIFWTNLAKDGGEPSKELMDTIKRDFGSLDNLQKRLSDITIAVQGSGWGWLGYCKKDKILKIATCANQDPLEGMVPLFGIDVWEHAYYLQYKNVRPDYVHAIWKIANWKNISERFANARQ | 4

From article PMC2593702, “Purification, crystallization and X-ray structures of the two manganese superoxide dismutases from Caenorhabditis elegans” (Acta Crystallographica Section F, 2008)
